# Assay: yeast display, Sf9 membrane polyspecificity reagent, FACS + sequencing; frameworks hold sequencing errors
# How it was run: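 A synthetic nanobody library was expressed on Saccharomyces cerevisiae BJ5465 by galactose induction for 36–48 hours. The library was stained for 1 hour at 4 °C with 10% biotinylated, detergent-solubilized Sf9 membrane reagent and enriched with streptavidin microbeads before FACS. Low and high (top ~1%) gates were set on anti-HA fluorescence for expression and streptavidin fluorescence for reagent binding, and each polyreactivity label reflects the gate of origin.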
row,Sequence,polyreactivity (PSR sort gate)
1,QVQLVESGGGLVQAGGSLRLSCAASGSTFEHYTMGWYRQAPGKERELVAAINGRGGSTYYADSVKGRFTISRDNAKNTVYLQMNSLKPEDTAVYYCAAVYGFRDYDYWGQGTQVTVSS,high polyreactivity
2,QVQHVESGGGLVQAGGSLRLSCAASGSYLRYYAMGWYRQAPGKERELVAAISRSGTNTYYADSVKGRFTFSPDNAKNSVYLQMNSVKPEVTAVYYCAARGYYRDYDSWGQGTQVTVSS,high polyreactivity
3,QVQLVESGGGLVQAGGSIRLSCAASGGTFGYYVMGWYRQAPRKERELVAAITSGGSTKYADSVKGRFTISRDNAKNTVYLQMNSLKPEDTAVYYCAADVTRREPYQSYDYWGQGTQVTVSS,low polyreactivity
4,QVQLVESGGGLVQAGGSLRLSCAASGYIFDIYAMGWYRQAPGKERELVAVITRSGGGTYYADSVKGRFTISRDNAKNTVYFQMNSLKPEDTAVYYCAAESYVYGGSDYVYWGQGTEVTVSS,low polyreactivity
5,QVQLVESGGGLVQAGGSLRLSCAASGRIFPAYVMGWYRQAPGKERELVATIDNGGCTYYADSVKGRFTISRDNAKNTVYLQMNSLKPEDTAVYYCARDRHVRWGLKMDYWGQGTQVTVSS,low polyreactivity
6,QVQLVESGGGLVQAGGSLRLSCAASGSTSYRYAMGWYRQAPGKERELVAAISSSGGSTYYADSVKGRFTISRDNAKNTVYLQMNSLKPEDTAVYYCAARFYSGPGGYTMYYWGQGTQVTVSS,high polyreactivity
7,QVQLVESVGGLVQAGGSLRLICAASGSTFPSYAMGWYRQAPGKEREVVAAINSGGGTNYADSVKGRFTISRDNAKYTVYLQMNSLKPEDTAVYYCAKSRYDYTKTEGGYWGQGTQVTVSS,low polyreactivity
8,QVQLVESGGGFVQAGGSLRLSCAASGFTFGWYALGWYRQAPGKERELVAAMSFGGSRTYYADSVKGRFSISRDNAKNTVYLQLNILNPEDTAVYYCNVVVGSYSANARSHYWGQGTEVTVSS,high polyreactivity
9,QVQIEESGGGLVQAGGSLRLSCAASGRIFGSYTMGWSRQAPRKERELVAGISRRGGSTYYADSVKGRFTISRDNAKYTVYLQMNSLTTEDTAVYYCNTLRTNLFFTPLGFDYWGQGTQVTVSS,high polyreactivity
10,QVQLVESGGGLVQAGGSLRLSCSASGSIFPTYAMGWYRKAPGKERELVAAIRSGSNTYYADSVKGRFTISRDNAKNTVYLQMNSLKPEDTAVYYCNKATNLSGGYDSWGQGTQVTVSS,low polyreactivity
11,QVQLVESGGGLVQAGGSLRLSCAASGSIFGSYAMGWYRQAPGKERELVAAIRWRGGSTYYADSVKGRFTISRDNAKNTVYLQMNSLKPEDTAVYYCNAVTHYPVWVSGVGYDYWGQGTQVTVSS,high polyreactivity
12,QVQLVESVVGLVQAGGSLRLSCADSGSTFRSNAMGWYRQAPGKETELVAGITSGTSTNYADSVKGRFTISRDNAKNTVYLQMNSLKPEDTAVYYCNTDRIWYGPEYDFWGQGTQVTVSS,low polyreactivity
13,QVQLVESGGGLVQAGGSLRLSCAASGSTFYGNAMGWYRQAPGKERELVAAITGDGGSTYYADSVKGRFTISRDNAKNTVYLQMNSLKPEDTAVYYCAVDVIVLGQWPGQLDEFDYWGQGTQVTVSS,low polyreactivity
14,QVQLVESGGGLVQAGGSLRLSCAASGFIFKFYTMGWYRQAPGKERELVAVISGSGGRTYYADSVKGRFTISRDNAKNTVYLQMNSLKPEDTAVYYCARYGPYQSSYHYDYWGQGTQVTVSS,high polyreactivity
15,QVQLVESVGGLVQAGGSLRLSCAASGGTFQHYTMGWYRQAPGKERELVAAISLSGTRTYYADSVKGRFTISRDNAKNTVYLQMNSLKPEDTAVYYCAARYGVEYWGQGTQVTVSS,low polyreactivity
16,QVQLVESGGGLVQAGGSHRLSCDASGRIFGPYAMGWYRQAPGKESELVATISWRGARTYYADSVKGRFTISRDNAKNTVYLQMNSLKPEDTAVDYCAATFYYSARFDYWGQGTQVTVSS,high polyreactivity
17,QVQLVESGGGLVQAGGSLRLSCAASGIIFSSNVMGWYRQAPGKERELVAAISRSGDRTYYADSVKGRFTISRDNAKNTVYLQMNSLKPEDTAVYYCAARERVNVVSNGYWGQGTQVTVSS,high polyreactivity
18,QVQLVESGGGLVQAGGSLRLSCADSGFNFYQYAMGWYRQAPGKERELVAVISGSGSRTYYADSVKGRFTISRDNAKNTVYLQMNSLKPEDTAVYYCAAKGVIISYDTLRYDSWGQGTQVTVSS,high polyreactivity
19,QVQRVESGGGLVQAGGSLRLSCAASRRIFKLYAMGWYIQAPGKERELVAAINRRGGSTSYADSVKVRFTISRDYAKNTVYLQMNSLKPEDTAVYYCAASYTGRTVVQGYEYWGQGTQVTVSS,high polyreactivity
20,QVQLVESGGGLVQAGGSLRLSCAASGRTFRYNTMGWYRQAPGTERELVATITGSGGSTYYADSVKGRFTISRDNAKNTVYLQMNSLKPEDTAVYYCNALFRLRAYAEMDYWGQGTQVTVSS,high polyreactivity
21,QVQLVESGGGLVQAGGSLRLSCAASGSIFPHYAMGWYRQAPGKERELVAAISSGTSTNYADSVKGRFTISRDNAKNTVYLQMNSLKPEDTAVYYCAADIGVYGERREEEFDYWGQGTQVTVSS,low polyreactivity

row,Sequence,polyreactivity (PSR sort gate)
1,QVQLVQSGGGLVQAGGSLRLSCAASGRTFGVYAMGWYRQAPGKERELVAAITWSGGSTYYADSVKGRFTISRDNAKNTVYLQMNSLKPEDTAVYYCAALTWLSGVKMGYWGQGTQVTVSS,high polyreactivity
2,QVQLVESGGGLVQAGGSLRLSCAASGSTFYSNVMGWYRQAPGKEREFVAGISGSGGSTYYADSVKGRFTISRDNAKNTVYLQMNSLKPEDTAVYYCAKYRYSRYFRYDYWGQCTQVTVSS,high polyreactivity
3,QVQLVESGGGLVQAGGSLRLSCAASGRICSQYAMGWYRQAPGKERELVAAISTSGDRTYYADSVKGRFTISRDNAQNSGYLQLNSLKPEDTAVYYCAKDGPYTYGRDIYEYWGQGTQVTVSS,low polyreactivity
4,QVQLVESGGGLVQAGGSLRLSCAASGKIFSYNAMGWYRQAPGKERELVAAISRSGGSTYYADSVKGRFTISRDNAKNTVYLQMNSLKPEDTAVYYCAADWRGRKYDYWGQGTQVTVSS,high polyreactivity
5,QVQLVESGGGLVQAGGSLRLSCAASGRTFRSYAMGWYRQAPGKERELVAAITWGGGRTYYADSVKGRFTISRDNAKNTVYLQMNSLKPEDTAVYYCATRVKFSTSYWLYYWGQGTQVTVSS,high polyreactivity
6,QVQLVESGGGLVQAGGSLRLSCAASGSTFTRNAMGWYRQAPGKERELVAAITSSGGSTYYADSVKGRFTISRDNAKNTVYLQMNSLKPEDTAVYYCNADFRTYYDSEYDYWGQGTQVTVSS,low polyreactivity
7,QVQLVESGGGLVQAGGSLRLSCAASGFTLYVNAMGWYRHAPGKERELVAAISRGTTTYYADSVKGRFTISRDNAKNTVYLQMNSLKPEDTAVYYCAGETGHPYEEYDYWGQGTQVTVSS,high polyreactivity
8,QVQLVESGGGLVQAGGSLRLSCAASGSTFIVNAMGWYRQAPGKERELVATISGGDSTDYADSVKGRFTISRDNAKNTVYLQMNSLKPEDTAVYYCNSDVHQYYFTPYDYWGQGTQVTVSS,low polyreactivity
9,QVQLVESGGGLVQAGGSLRLSCAASGGTFWWYTMGWYRQAPGKERELVATITRGGSTNYADSVKGRFTISRDNAKNTVYLQMNSLKPEDTAVYYCAKRYRPYYSTYDYWGQGTQVTVSS,high polyreactivity
10,QVQLVESGGGLVQAGGSLRLSCAASGSPVSRYALGWYRQAPGKERELVAAFSWGGNTYYADSVKGRFTISRDNAKNTVYLQMKSLKPEDTAVYYCNRYSKLYNTMDYWGQGTQVTVSS,high polyreactivity
11,QVQLVESGGGLVQAGGSLRLSCAASGFIFYLYAMGWYRQAPGKERELVAAISWSGGITYYADSVKGRFTISRDNAKNTVYLQMNSLKPEDTAVYYCNAVGASASDGDYWGQGTQVTVSS,high polyreactivity
12,QVQLVESGGGLVQAGGSLRLSCAASGRTFPYYAMGWYRQAPGKERELVAAISKRGGTTYYADSVKGRFTISRDNAKNTVYLQMNSLKPEDTAVYYCAKDSAYGWVAYDYWGQGTQVTVSS,high polyreactivity
13,QVQLVESGGGLVQAGGSLRLSCAGSGFSFPNNGMGGYRQAPGKERELVAAIRSSGGSTYYADSVKGRFTISRDNAKNTVYLQMNSLKPEDTAVYYCNARRRGGYVGRPRYPVAAYDYWGQGTQVTVSS,low polyreactivity
14,QVQLVETGGGLVQAGGSLRLSCAASGITFSDNAMGWYIQAPVKERELVADISYGGGNTYYADSVQGRFTISRDNAKYTVYLQMNSLKPEDTAVYYCAAVYYFLWYGYYLALDYWGQGTQVTVSS,high polyreactivity
15,QVQLVESGGGLVQAGGSLRLSCAASGLTFTGNAMGWYRQAPGKEREFVAAIRWSAGSTYYADSVKGRFTISRDNAKNTVYLQMNSLKPEDTAVYYCNAALNVSGHYPNDYWGQGTQVNVSS,low polyreactivity
16,QVQLVESGGGLVQAGGSLRLSCAASGRTFVSNAMGWYRQAPGKERELVATITVSSDSTYYADSVKGRFTISRDNAKNTVYLQMNSLKPEDTAVYYCAARNPTWSFQFDYWGQGTQVTVSS,low polyreactivity
17,QVQLVESGGGLVQAGGSLRLSCAASGSIFTKYAMGWYRQAPGKERELVAAISASGGSTYYADSVKGRFTISRDNAKNTVYLQMNSLKPEDTAVYYCAARYWVREDYWGQGTQVTVSS,high polyreactivity
18,QVQLVESGGGLVQAGGSLRLSCAASGRILRYNAMGWYRQAPGKERELVATITRSAGRTYSADSVKGRFTISRDNAKNTVYLQMNSLKPEDTAVYYCAKDTDISTLHSKGRAKSRYDYWGQGTQVTVSS,low polyreactivity
19,QGQLVESGGGLFQAGGSLSLSCASSGRTITHNVMGWYRQAPGKEMELVAGISSTGGSTYYADSVKGRFTISRDNSKNTVYLQMNSLKPEDTAVYYCAKEYYDGYFPSFDYEYWGQGTQVTVSS,low polyreactivity
20,QVQLVESGGGLVQAGGSLRLICAASGTTFGRNAMGWYRQAPGKERELVDAIDSGASTYYADSVKGRFTISRDNAKNTVYLQMNSLKPEDTAVYYCGADVVYDYGGMDYWGQGTQVTVSS,low polyreactivity

# — the nanobody polyreactivity screen of Harvey et al. (2022)
